Assay results taken from article PMC13623948.

What was measured:
[1] = biological target: human UBA6 (full-length, amino acid residues 1-1052) (human) (UniProt A0AVT1)
human UBA1 (human) = human UBA1 (human) (UniProt P22314); assay: BLI; His-tagged E1 ligands on Anti-Penta-His (His1K) biosensors; analyte BIRC6^UBC or BIRC6^(UBCΔinsertion loop) at 40-3240 nM; 50 mM HEPES, pH 7.4, 150 mM NaCl, 0.05% Tween-20, 10 mM imidazole; 25 °C; steady-state 1:1 fit
[2] = biological target: oxyester-linked UBA6-Ub conjugate (UBA6 C625S charged with ubiquitin) (human) (UniProt A0AVT1); assay: as above

human UBA6 (full-length, amino acid residues 1-1052) (human), sequence (A0AVT1 whole entry, the tested form may be a part): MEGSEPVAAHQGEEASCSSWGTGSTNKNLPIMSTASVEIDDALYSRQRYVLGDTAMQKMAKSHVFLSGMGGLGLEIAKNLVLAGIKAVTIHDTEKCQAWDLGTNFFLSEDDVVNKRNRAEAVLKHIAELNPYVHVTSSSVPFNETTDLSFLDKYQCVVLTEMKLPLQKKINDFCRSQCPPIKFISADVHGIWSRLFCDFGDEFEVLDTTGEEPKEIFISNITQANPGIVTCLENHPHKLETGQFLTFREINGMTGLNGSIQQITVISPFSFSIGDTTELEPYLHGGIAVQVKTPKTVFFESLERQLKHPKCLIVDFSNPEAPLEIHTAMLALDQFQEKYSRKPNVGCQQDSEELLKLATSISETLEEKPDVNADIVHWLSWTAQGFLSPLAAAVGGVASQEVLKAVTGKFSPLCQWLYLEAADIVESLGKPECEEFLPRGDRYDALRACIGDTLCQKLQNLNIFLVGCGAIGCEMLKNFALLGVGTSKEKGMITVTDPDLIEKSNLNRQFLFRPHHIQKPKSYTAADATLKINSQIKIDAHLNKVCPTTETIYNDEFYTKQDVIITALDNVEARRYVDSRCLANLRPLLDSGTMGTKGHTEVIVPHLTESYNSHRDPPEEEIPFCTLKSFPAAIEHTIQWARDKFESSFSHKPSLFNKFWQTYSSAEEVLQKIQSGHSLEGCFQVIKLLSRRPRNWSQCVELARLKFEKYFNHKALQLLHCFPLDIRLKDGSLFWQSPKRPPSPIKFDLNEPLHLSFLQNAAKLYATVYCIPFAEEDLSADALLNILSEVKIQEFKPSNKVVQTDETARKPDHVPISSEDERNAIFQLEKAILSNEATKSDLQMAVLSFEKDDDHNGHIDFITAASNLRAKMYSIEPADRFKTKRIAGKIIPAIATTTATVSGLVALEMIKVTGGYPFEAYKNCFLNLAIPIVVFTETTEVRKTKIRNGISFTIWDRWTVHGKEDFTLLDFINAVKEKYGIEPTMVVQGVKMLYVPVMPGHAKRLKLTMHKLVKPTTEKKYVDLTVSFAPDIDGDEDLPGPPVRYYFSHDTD
UBC domain of BIRC6 (residues 4520-4857), sequence (Q9NR09 4520-4857): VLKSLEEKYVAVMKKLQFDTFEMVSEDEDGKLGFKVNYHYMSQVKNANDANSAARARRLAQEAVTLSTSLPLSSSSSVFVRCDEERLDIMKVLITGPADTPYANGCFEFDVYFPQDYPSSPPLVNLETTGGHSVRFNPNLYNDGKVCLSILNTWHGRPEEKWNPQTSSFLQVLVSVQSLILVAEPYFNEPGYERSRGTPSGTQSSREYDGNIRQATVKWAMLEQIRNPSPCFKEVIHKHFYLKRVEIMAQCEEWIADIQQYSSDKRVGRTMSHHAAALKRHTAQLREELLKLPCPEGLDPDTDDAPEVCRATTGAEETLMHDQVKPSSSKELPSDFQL

Row | Substance | reduction of Ub charging of BIRC6^UBC by UBA6 relative to WT (E1–E2 transthioesterification assay, 2 min) [1] | other results
1 | BIRC6^UBC N-helix mutant (R4576A-Q4580A-V4583G) (from UniProt Q9NR09 4520-4857) (domain or fragment) | 25% | –
2 | BIRC6^UBC C-terminal extension mutant (R4745A-R4799A-T4789A) (from UniProt Q9NR09 4520-4857) (domain or fragment) | 50% | –
3 | BIRC6^UBC β4 loop mutant (Q4634A) (from UniProt Q9NR09 4520-4857) (domain or fragment) | 50% | –
4 | BIRC6^UBC with the insertion loop deleted (from UniProt Q9NR09 4520-4857) (domain or fragment) | – | Kd (human UBA1 (human)): 1470 nM
5 | BIRC6^UBC Y4711G (from UniProt Q9NR09 4520-4857) (domain or fragment) | – | reduction of BIRC6^UBC~Ub formation by UBA6 relative to WT (E1–E2 transthioesterification assay, 2 min) [1]: 60%
6 | UBC domain of BIRC6 (residues 4520-4857) (from UniProt Q9NR09 4520-4857) (domain or fragment) | – | Kd [2]: 2410 nM
7 | BIRC6^UBC N-terminal extension mutant (A4569R) (from UniProt Q9NR09 4520-4857) | 25% | –
